B1: TPR t1 (parent)
chain: GACCAAUCUGCCCUCAGAGCUCGAGAACAUCUUCGGAUGCAGAGGAGGCAGGCUUCGGUGGCGCGAUAGCGCCAACGUCCUCAACCUCCAAUGCAUCCCACCACAUGAUGAUGCCUGAAGAGCCUUGGUUUUUUG

Variants of: B1
Test: polymerase ribozyme fitness, log enrichment relative to wild type (log ratio); higher = more active; in vitro selection for triplet polymerase activity
In short: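 In triplicate, a single round of in vitro selection was run on each mutant library, PCR-built and transcribed, covering one subunit of a heterodimeric triplet polymerase ribozyme. Frozen incubation at −7 °C followed annealing with a biotinylated primer, partner subunit and triplets, and extended constructs were then gel-excised, streptavidin-captured and taken through RT-PCR. Fitness is the logarithm of genotype enrichment over wild-type enrichment, from inverse-variance-weighted replicate averages of Illumina-sequenced inputs and outputs. […] only genotypes with ≥10 input reads and ≥1 read per output were kept.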

Variant | polymerase ribozyme fitness (log ratio)
G57A C62G | -3.37
U59A G63U | -1.93
C56A G60A U116G G135A | -3.36
C56G U96A C123G U130C | 0.506
U55C C89U C115U | -3.71
C56A C73U C124A | 1.29
G57U U129C | -1.6
G57C G63A G69U | -1.39
G57U U87A A90C C101U C114U U125A | -4.29
G57A G69U C86A C101G | -2.75
U59A G117U | -2.68
C56G C89A A105G C114U | -5.42
G58C U67C A100U G120C | -6.28
U59A C70U U87A | -1.83
C56U U106A G120A | 0.351
C56U A95C A118C C124A U132A | -0.917
C56U U81G C82A | -1.57
C56U A95G C101A | -1.46
G57C G61U U96G | -1.85
C56U A91U | -1.19
C56A G69U A119G | 0.438

Variant | polymerase ribozyme fitness (log ratio)
C56U C86G C104U | -0.849
G58A C79A | -1
G58C G60C | -0.636
C56A G60A | -0.181
C56G G58A G77A | 0.427
G57C C97U G113C | -3.16
C56A C82A G128A | -2.53
C56A A68G | -2.75
U59C A83U | -0.619
G57U A95U A121U C124U | 1.18
G57A C72U G113A C114U | -2.53
G57C G61U | -0.733
G57U C98U G110A U112G | -5.09
U59A A83G | -0.546
C56A C62U C124U | 1.48
G58C C98G | -5.66
C56G A74U C124U | 0.777
U55G C102A G110A U130A | -6.51
C56G G93A A95G G113A G120C | -3.38
G57U G122A | -1.56
U59A A90G C123U | 1.4

Variant | polymerase ribozyme fitness (log ratio)
C56U C82U | -0.0659
U59C A83U C94A C115U | -4.3
C56A C86G C102A | -3.16
U59C C89A A95C G113C | -4.48
C56U A95C G128C | -2.78
G57U G135U | -0.352
G57U C89A | -1.5
C56U U92A | -2.86
C56U U92G | -2.12
C56A G107C | -5.28
C56A U78A | 0.796
C56A U78C | -0.456
U59C A111U A118U | -4.73
G57A C72U | -1.29
G57A C76A A105C | -4.35
U59A G128A | -1.96
G58A A90C | -1.28
G58U G61A U131G | -0.481
U55C C62G | -1.97
G57A C72A C85U C99G U106G | -7.04
U59C C70U C85A | -2.04

Variant | polymerase ribozyme fitness (log ratio)
C56U G93A G110C | -5.11
U59A C94A | -0.84
G58U G60C C88U A95U | -2.05
G58C C101U G122A | -1.1
C56U U129C | -0.507
G57U C72U G110C | -4.22
G58U A68G | -3.5
G57A C76A | -0.895
C56G G117U | -2.83
G58A G71A C89A C123A | -3.72
G57A G71U C88G | -5.05
C56U G63A | -4.43
C56U C98A G120U | -4.12
C56A C123U C124U | 1.2
U59A C124U | 1.47
C56G C64G | -7.2
C56G U92G U96A G122A | -4.6
U59A C64A A118U | -6.49
C56A G63C | -2.33
C56A G71A U78G G128C U129A | -4.83
C56U U78C | -0.427

Source: the RNAGym collection of RNA variant scans (doi:10.1073/pnas.2313332121)
